# Values of other authors in PMC4692369.
# Biological target: Tyr57 (UniProt position 57, QIAAFYRQGLG)
# Test: UV-vis
# Conditions: apo enzyme
substance,measurement,value
Ketosteroid isomerase D40N (earlier construct without LVPR) (Pseudomonas putida; D40N),pKa,6.3
